Measured values: PMC11549101, “Structural insights into human zinc transporter ZnT1 mediated Zn^2+ efflux” (EMBO Reports, 2024)

B1: human zinc transporter 3 (ZnT3) lacking the N-terminal 49 residues, ZnT3(50-388) (domain or fragment, UniProt Q99726 50-388, looked up)
chain: MPFHHCHRDPLPPPGLTPERLHARRQLYAACAVCFVFMAGEVVGGYLAHSLAIMTDAAHLLADVGSMMGSLFSLWLSTRPATRTMTFGWHRSETLGALASVVSLWMVTGILLYLAFVRLLHSDYHIEGGAMLLTASIAVCANLLMAFVLHQAGPPHSHGSRGAEYAPLEEGPEEPLPLGNTSVRAAFVHVLGDLLQSFGVLAASILIYFKPQYKAADPISTFLFSICALGSTAPTLRDVLRILMEGTPRNVGFEPVRDTLLSVPGVRATHELHLWALTLTYHVASAHLAIDSTADPEAVLAEASSRLYSRFGFSSCTLQVEQYQPEMAQCLRCQEPPQA
notes: Zinc transporter 3 (ZnT3/SLC30A3), human, residues 50-388 (lacking the N-terminal 49 residues); No protease step is described for ZnT3, so the tags were probably still on the chain; also called hZnT3; SLC30A3; source: HEK293F cells, transfected
B2: human zinc transporter 1 (ZnT1), full-length wild type (natural protein, UniProt Q9Y6M5 1-507, looked up)
chain: MGCWGRNRGRLLCMLALTFMFMVLEVVVSRVTSSLAMLSDSFHMLSDVLALVVALVAERFARRTHATQKNTFGWIRAEVMGALVNAIFLTGLCFAILLEAIERFIEPHEMQQPLVVLGVGVAGLLVNVLGLCLFHHHSGFSQDSGHGHSHGGHGHGHGLPKGPRVKSTRPGSSDINVAPGEQGPDQEETNTLVANTSNSNGLKLDPADPENPRSGDTVEVQVNGNLVREPDHMELEEDRAGQLNMRGVFLHVLGDALGSVIVVVNALVFYFSWKGCSEGDFCVNPCFPDPCKAFVEIINSTHASVYEAGPCWVLYLDPTLCVVMVCILLYTTYPLLKESALILLQTVPKQIDIRNLIKELRNVEGVEEVHELHVWQLAGSRIIATAHIKCEDPTSYMEVAKTIKDVFHNHGIHATTIQPEFASVGSKSSVVPCELACRTQCALKQCCGTLPQAPSGKDAEKTPAVSISCLELSNNLEKKPRRTKAENIPAVVIEIKNMPNKQPESSL
notes: Zinc transporter 1 (ZnT1/SLC30A1), human, full-length wild type, codon-optimised synthetic cDNA; residues 138-240 and 448-507 not modelled in the map; also called hZnT1; SLC30A1; source: HEK293F cells, transfected; not shown: FLAG, C-terminal, cleaved; mCherry, C-terminal, cleaved

Assays:
[1] = molecular target: the molecule itself; assay: cryo-EM structure; single-particle cryo-EM of purified hZnT3(50-388) in LMNG/CHS micelles, 50 mM MES pH 6.0, 150 mM NaCl, 1 mM ZnSO4; 3.14 Å map
[2] = molecular target: the molecule itself; assay: cryo-EM structure; single-particle cryo-EM of purified hZnT1 in LMNG/CHS micelles, 50 mM HEPES-Na pH 7.5, 150 mM NaCl, no Zn2+ supplement, no EDTA treatment; 3.48 Å map, C1

Protein	stoichiometry N [1]	stoichiometry N [2]
B1	2	–
B2	–	2
